Results reported in patent US20140086916A1 (Merck Sharp & Dohme, published 2014).
Where two headings read alike, the source gives them in different places.

What was measured:
[1] = molecular target: T1, FcγRIIA H (UniProt P12318 34-217, limits assumed); assay: FcγR affinity assay 'as described in Example 7', n = 3; printed as Affinity (nM) ± STDEV
T1 construct: also called FcgRIIA H
T1 sequence (looked up): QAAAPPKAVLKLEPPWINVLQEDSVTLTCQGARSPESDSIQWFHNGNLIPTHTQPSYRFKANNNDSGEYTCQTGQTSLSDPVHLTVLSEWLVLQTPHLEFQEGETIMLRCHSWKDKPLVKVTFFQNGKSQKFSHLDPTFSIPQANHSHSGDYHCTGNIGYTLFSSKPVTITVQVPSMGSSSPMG
Protocol: (§1) Fcγ receptor binding assays were carried out as described (Shields, et al. (2001) J. Biol. Chem. 276:6591-6604) with minor modifications. High protein binding 96-well plates (Corning Costar) were coated with 100 μL per well of Fcγ receptor solutions in PBS at the following concentrations: 1 μg/mL for both FcγRI (R&D Systems) and FcγRIIa (Pichia pastoris produced), 2 μg/mL for FcγRIIb (P. pastoris produced), 0.8 μg/mL for FcγRIIIa-F158, and 0.4 μg/mL for FcγRIIIa-V158 (both P. pastoris produced). All Pichia pastoris produced receptors were expressed and purified as described (Li, et al. (2006) Nature Biotechnology 24:210-215). Monomeric antibody samples added to the FcγRI plate were serially diluted in assay diluent (1×PBS, 1% BSA, and 0.05% Tween20) and 100 μL, per well was added to the plate. Antibody samples prepared for the remaining receptors require a one hour dimerization step with half molar ratio of goat anti-human IgG F(ab′)2 F(ab′)2 that is conjugated with alkaline phosphatase for detection. These dimerized F(ab′)2/antibody complexes were also serially diluted and 100 μL per well were added to the remaining receptor plates and all plates were incubated for one hour at room temperature. FcγRI bound sample antibody was detected using the same goat anti-human IgG F(ab′)2 alkaline phosphatase conjugated F(ab′)2. Sample antibody binding was quantified by measuring excitation at 340 nm and emission at 465 nm after 18 hour incubation with SuperPhos, 4-MUP Fluorescence AP Substrate Detection System (Virolabs).

[2] = molecular target: T2, FcγRIIb (Pichia pastoris produced) (UniProt P31994 43-217, limits assumed); assay: as above
T2 construct: also called FcgRIIB; CD32B
T2 sequence (looked up): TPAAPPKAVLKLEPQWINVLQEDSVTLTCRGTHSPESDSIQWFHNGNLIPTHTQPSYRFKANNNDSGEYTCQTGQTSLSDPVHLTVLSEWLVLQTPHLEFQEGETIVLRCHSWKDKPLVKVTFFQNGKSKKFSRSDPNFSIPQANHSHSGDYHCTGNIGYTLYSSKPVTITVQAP
Protocol: as §1

[3] = molecular target: T3, FcγRIIIa-F158 (Pichia pastoris produced) (UniProt P08637 17-208, limits assumed); assay: as above
T3 construct: also called FcγRIIIA LF; FcgRIIIA LF
T3 sequence (P08637 17-208 limits assumed): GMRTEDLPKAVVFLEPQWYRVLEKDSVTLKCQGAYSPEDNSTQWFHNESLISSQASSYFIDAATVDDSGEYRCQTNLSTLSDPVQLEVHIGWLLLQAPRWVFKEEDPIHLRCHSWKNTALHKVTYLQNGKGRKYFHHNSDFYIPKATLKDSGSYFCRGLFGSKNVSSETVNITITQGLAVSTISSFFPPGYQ
Protocol: as §1

[4] = molecular target: T4, FcγRIIIa-V158 (Pichia pastoris produced) (UniProt P08637 17-208, limits assumed); assay: as above
T4 construct: also called FcγRIIIA LV; FcgRIIIA LV
T4 sequence (P08637 17-208 F176V limits assumed): as the sequence (P08637 17-208 limits assumed) above, with F160V counted along it
Protocol: as §1

[5] = molecular target: T4, FcγRIIIa-V158 (Pichia pastoris produced); assay: ELISA-type plate assay, FcγR coated, antibody dimerized with AP-conjugated goat anti-human IgG F(ab')2, RFU readout
Protocol: as §1

[6] = molecular target: T4, FcγRIIIa-V158 (Pichia pastoris produced); assay: as above; remark: listed apart in the source
Protocol: as §1

[7] = molecular target: T4, FcγRIIIa-V158 (Pichia pastoris produced); assay: as above; remark: listed apart in the source
Protocol: as §1

[8] = molecular target: T4, FcγRIIIa-V158 (Pichia pastoris produced); assay: as above; remark: listed apart in the source
Protocol: as §1

[9] = molecular target: T4, FcγRIIIa-V158 (Pichia pastoris produced); assay: as above; remark: listed apart in the source
Protocol: as §1

[10] = molecular target: T5, FcγRIIa (Pichia pastoris produced) (UniProt P12318 34-217, limits assumed); assay: as above
T5 construct: also called CD32A
T5 sequence (looked up): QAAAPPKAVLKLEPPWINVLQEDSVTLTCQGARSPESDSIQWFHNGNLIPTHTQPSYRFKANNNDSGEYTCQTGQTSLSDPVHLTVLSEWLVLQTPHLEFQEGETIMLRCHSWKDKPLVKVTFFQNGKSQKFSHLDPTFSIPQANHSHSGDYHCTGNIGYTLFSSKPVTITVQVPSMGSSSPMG
Protocol: as §1

[11] = molecular target: T4, FcγRIIIa-V158 (Pichia pastoris produced); assay: as above; remark: listed apart in the source
Protocol: as §1

[12] = molecular target: T3, FcγRIIIa-F158 (Pichia pastoris produced); assay: ELISA on plate-coated receptor; antibody dimerized with anti-human IgG F(ab')2-AP; ELISA IC50, YGLY23258 (dimer), Table 6 experiment
Protocol: as §1, with “These dimerized F(ab′)2/antibody complexes were also serially diluted and 100 μL per well were added to the remaining receptor plates and all plates were incubated for one hour at room temperature.” left out

[13] = molecular target: T4, FcγRIIIa-V158 (Pichia pastoris produced); assay: as above
Protocol: as §1, with “These dimerized F(ab′)2/antibody complexes were also serially diluted and 100 μL per well were added to the remaining receptor plates and all plates were incubated for one hour at room temperature.” left out

[14] = molecular target: T3, FcγRIIIa-F158 (Pichia pastoris produced); assay: ELISA on plate-coated receptor; antibody dimerized with anti-human IgG F(ab')2-AP; ELISA IC50, YGLY23258 (dimer), Table 7 experiment
Protocol: as §1, with “These dimerized F(ab′)2/antibody complexes were also serially diluted and 100 μL per well were added to the remaining receptor plates and all plates were incubated for one hour at room temperature.” left out

[15] = molecular target: T4, FcγRIIIa-V158 (Pichia pastoris produced); assay: as above
Protocol: as §1, with “These dimerized F(ab′)2/antibody complexes were also serially diluted and 100 μL per well were added to the remaining receptor plates and all plates were incubated for one hour at room temperature.” left out

B1: 1F11 wildtype (parent) humanized anti-PCSK9 monoclonal IgG1 antibody (antibody)
heavy: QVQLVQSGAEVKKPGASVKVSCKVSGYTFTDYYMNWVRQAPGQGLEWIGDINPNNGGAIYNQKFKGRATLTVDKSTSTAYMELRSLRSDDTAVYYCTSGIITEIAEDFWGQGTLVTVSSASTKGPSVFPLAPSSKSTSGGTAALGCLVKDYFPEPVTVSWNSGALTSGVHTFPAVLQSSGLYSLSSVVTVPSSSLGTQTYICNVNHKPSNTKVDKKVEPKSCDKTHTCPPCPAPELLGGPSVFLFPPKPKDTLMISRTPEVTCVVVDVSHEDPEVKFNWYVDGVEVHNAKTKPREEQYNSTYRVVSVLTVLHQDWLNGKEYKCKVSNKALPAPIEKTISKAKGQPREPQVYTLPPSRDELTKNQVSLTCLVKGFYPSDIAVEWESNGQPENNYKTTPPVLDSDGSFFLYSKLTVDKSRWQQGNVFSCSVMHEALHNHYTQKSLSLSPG
light: DIQMTQSPSSLSASVGDRVTITCKASQNVGTNVVWYQQKPGKAPKALIHSASYRYSGVPSRFSGSGSGTDFTLTISSLQPEDFATYYCQQYKTYPYTFGQGTKVEIKRTVAAPSVFIFPPSDEQLKSGTASVVCLLNNFYPREAKVQWKVDNALQSGNSQESVTEQDSKDSTYSLSSTLTLSKADYEKHKVYACEVTHQGLSSPVTKSFNRGEC
notes: Produced in glycoengineered Pichia pastoris GFI5.0 (strain YGLY21351); also called 1F11 IgG1 GS5.0; YGLY21351
Binder B1 has a Kd [1] of 892 nM, a Kd [2] of 545 nM and a Kd [3] of 203 nM. For the same binder, the Kd [4] was 0.15 nM, the “EC50 (read off the curve)” value [5] was roughly 0.04 µg/mL and the “EC50 (read off the curve)” value [6] was roughly 0.03 µg/mL. For the same binder, the “EC50 (read off the curve)” value [7] was roughly 0.04 µg/mL, the “EC50 (read off the curve)” value [8] was roughly 0.03 µg/mL and the “EC50 (read off the curve)” value [9] was roughly 0.03 µg/mL. The “EC50 (read off the curve)” value [10] was roughly 0.06 µg/mL and the “EC50 (read off the curve)” value [11] was roughly 0.05 µg/mL.

B2: 1F11 IgG1 F243A/V264A double mutein anti-PCSK9 antibody (antibody)
heavy: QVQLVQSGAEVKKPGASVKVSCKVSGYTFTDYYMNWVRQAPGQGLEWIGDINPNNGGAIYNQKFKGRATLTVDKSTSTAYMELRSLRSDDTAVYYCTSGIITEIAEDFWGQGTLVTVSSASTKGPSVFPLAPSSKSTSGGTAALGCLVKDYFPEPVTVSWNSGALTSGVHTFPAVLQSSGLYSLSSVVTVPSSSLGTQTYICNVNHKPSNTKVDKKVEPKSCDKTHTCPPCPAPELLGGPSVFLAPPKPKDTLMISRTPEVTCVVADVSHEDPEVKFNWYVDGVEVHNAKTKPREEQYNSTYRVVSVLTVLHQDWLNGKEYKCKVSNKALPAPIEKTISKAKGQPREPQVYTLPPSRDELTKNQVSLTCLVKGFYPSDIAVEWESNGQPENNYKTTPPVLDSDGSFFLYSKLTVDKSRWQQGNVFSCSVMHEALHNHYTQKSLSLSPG
light: DIQMTQSPSSLSASVGDRVTITCKASQNVGTNVVWYQQKPGKAPKALIHSASYRYSGVPSRFSGSGSGTDFTLTISSLQPEDFATYYCQQYKTYPYTFGQGTKVEIKRTVAAPSVFIFPPSDEQLKSGTASVVCLLNNFYPREAKVQWKVDNALQSGNSQESVTEQDSKDSTYSLSSTLTLSKADYEKHKVYACEVTHQGLSSPVTKSFNRGEC
notes: sialylated N-glycans; also called 1F11 DM; YGLY23258
For B2, the Kd [3] was 2520 nM, the Kd [4] was 97 nM and the “EC50 (read off the curve)” value [5] was roughly 0.1 µg/mL. For the same binder, the “EC50 (read off the curve)” value [6] was roughly 0.1 µg/mL, the “EC50 (read off the curve)” value [7] was roughly 0.1 µg/mL and the “EC50 (read off the curve)” value [8] was roughly 0.2 µg/mL. For the same binder, the “EC50 (read off the curve)” value [9] was roughly 0.2 µg/mL, the “EC50 (read off the curve)” value [11] was roughly 0.1 µg/mL and the IC50 [12] was 1.17 µg/mL. For the same binder, the IC50 [13] was 0.16 µg/mL, the IC50 [14] was 1.31 µg/mL and the IC50 [15] was 0.16 µg/mL.
